# Test results from the nanobody polyreactivity screen of Harvey et al. (2022).
# Experiment: yeast display, Sf9 membrane polyspecificity reagent, FACS + sequencing; frameworks hold sequencing errors
# Procedure, shortened: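 Synthetic nanobody libraries on Saccharomyces cerevisiae BJ5465 were galactose-induced for 36–48 hours, stained 1 hour at 4 °C with 10% biotinylated, detergent-solubilized Sf9 membrane reagent and enriched on streptavidin microbeads. FACS then separated cells into low and high (top ~1%) gates by anti-HA (expression) and streptavidin (reagent binding) fluorescence. Genes were colony-PCR amplified, MiSeq 2 × 250 sequenced and CDR-length filtered. A clone's polyreactivity label is that of its gate of origin.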
row,Sequence,polyreactivity (PSR sort gate)
1,QVQLVESGGGLVQAGGSLRLSCAASGIIFDTNAMGWYRQAPGKERELVASISKRGGSTYYADSVKGRFTISRDNAKNTVYLQMNSLKPEDTAVYYCNALRRRQYHDDYWGQGTQVTVSS,high polyreactivity
2,QVQLVESGGGLVQAGGSLRLSCAASGIIFDTYTMGWTRHSPGKERELVAAITRRGSRTYYADSVKGRFTISRDNAKNTVYLQMNSLKREDTAVYYCNAVPRWSYVDEDSWGQGTQVTVSS,high polyreactivity
3,QVQLVESGGGLVQAGGSLRLSCAASGIIFDVYAMGWYIQAPGKERELVAAISSGGSTYYADSVKGRFTISRDNAKNTVYLQMNSLKPEDTAVYYCATAQSVIYRYEYWGQGTQVTVSS,low polyreactivity
4,QVQLVESGGGLVQAGGSLRLSCAASGIIFDYNAMGWYRPAPGKERELVAAISGRSGRTYYADSVKGRFTISRDNAKNTVYLQMNSLKPEDTAVYYCAARWYAGGNYWGQGTQVTVSS,high polyreactivity
5,QVQLVESGGGLVQAGGSLRLSCAASGIIFDYNAMGWYRQAPGKERELVAAISGRSGRTYYADSVKGRFTISRDNAKNTVYLQMNSLKPEDTAVYYCNALRLTRDPYDYWGQGTQVTVSS,high polyreactivity
6,QVQLVESGGGLVQAGGSLRLSCAASGIIFDYNAMGWYRQAPGKERELVAAITSTDNTNYADSVKGRFTISRDNAKNTVYLQMNSLKPEDTAVYYCNTDYWLSVVYAMDYWGQGTQVTVSS,low polyreactivity
7,QVQLVESGGGLVQAGGSLRLSCAASGIIFDYNAMGWYRQAPGKERELVASIDSGGSTNYADSVKGRFTISRDNAKNTVYLQMNSLKPEDTAVYYSNADDTTVSPWYYYYQSYYWGQGTQVTVSS,low polyreactivity
8,QVQLVESGGGLVQAGGSLRLSCAASGIIFDYNAMGWYRQAPGKERELVDSIDSGCSTNYADSVKGSFTISRDNAKNTVYLQMNSLKPEDTAVYYCNADDTTVSPWYYYYQSYYWGQGTQVTVSS,low polyreactivity
9,QVQLVESGGGLVQAGGSLRLSCAASGIIFDYYAMGWYRQAPGKERELVATITGNSTNTYYADSVKGRFTISRDNAKNTVYLQMNSLKPEDTAVYYCATAQTRWWPSIAGYDYWGQGTQVTVSS,high polyreactivity
10,QVQLVESGGGLVQAGGSLRLSCAASGIIFDYYDMGWYRQAPGKERELVAAISAGGGSTYYADSVKGRFTISRDNAKNTVYLQMNSLKPEDTAVYYCAALYWRSTVGAYSTYEYDYWGQGTQVTVSS,high polyreactivity
11,QVQLVESGGGLVQAGGSLRLSCAASGIIFEGYAMGWYRQAPGKERELVAGITIGDITYYADSVKGRFTISRDNAKNTVYLQMNSLKPEDTAVYYCAADSYYYQTAYDSWGQGTQVTVSS,low polyreactivity
12,QVQLVESGGGLVQAGGSLRLSCAASGIIFESNAMGWYRQAPGKERELVAAITGRGGRTYYADSVKGRFTISRDNAKNTVYLQTNSLKPEDTAVYYCAADGLRLVPGYKYDYWGQGTQVTVSS,high polyreactivity
13,QVQLVESGGGLVQAGGSLRLSCAASGIIFESYAMGCYRQAPGKERELVAAISSRGGSTYYADSVKGRFTISRDNSKNTVYLQMNSLKPEDTAVYYCAADVAAGVSSYPTKYSYDYWGQGTQVTVSS,low polyreactivity
14,QVQLVESGGGLVQAGGSLRLSCAASGIIFEYYAKGWYRQAPGKERELVAAITSDGSTNYADSVKGRFTISRDNEKNTVYLQMNRLKPEDTAVYYCNADLKANIQGVLSTGDDYWGQGTQVTVSS,low polyreactivity
15,QVQLVESGGGLVQAGGSLRLSCAASGIIFEYYAMVWYRQAPGKDRELVAAISRSSVSTYYADSVKGRFTISRDNAKNTVYLQMNSLKPEDTAVYYCAARQGYGYYKYGKYYYWGQGTQVTVSS,high polyreactivity
16,QVQLVESGGGLVQAGGSLRLSCAASGIIFFIYAMGWYRQAPGKERELVATISWTGGSTYYADSVKGRFTISRDNAKNTVYLQMNSLKPEDTAVYYCNADEWRWDEIIPYAVDYWGQGTQVTVSS,low polyreactivity
17,QVQLVESGGGLVQAGGSLRLSCAASGIIFFSNAMGWYRQAPGKERELVAAIDDSDGVTYYADSVKGRFTISRDNAKNTVYLQMNSLKPEDTAVYYCAAVDGWTYTGSDYWGDGTQVTVSS,low polyreactivity
18,QVQLVESGGGLVQAGGSLRLSCAASGIIFGFYAMGWYREAPGKERELVADITNDGGNTNYADSVKGRFTISRDNAKNTVYLQMNSLKPEDTAVYYCNADRTQVRNRYTYATFDYWGQGTQVTVSS,low polyreactivity
19,QVQLVESGGGLVQAGGSLRLSCAASGIIFGGYAMGWYRQAPGKERELVASISYSGGSTYYADSVKGRFTISRDNAKNTVYLQMNSLKPEDTAVYYCAAGYPRTPAAGYYWGQGTQVTVSS,high polyreactivity
20,QVQLVESGGGLVQAGGSLRLSCAASGIIFGHYAMGWYRQAPGKERELVAAIRSSGGTTYYADSVKGRFTISRDNAKNTVYLQMNRLKPEDTAVYYCAKRGVHLYHDYYWGQGTQVTVSS,low polyreactivity

row,Sequence,polyreactivity (PSR sort gate)
1,QVQLVESGGGLVQAGGSLRLSCAASGIIFGHYDMGWYRQAPGKERELVAAITFTGDSTYYADSVKGRFTISRDKAKNTVYLQMTSLKPEDTAVYYCAAETPVPWGSWGYDYWGQGTQVTVSS,low polyreactivity
2,QVQLVESGGGLVQAGGSLRLSCAASGIIFGIYDMGWSRQAPGKERELVAAIRRSGGSTYYADSVKGRFTISRDNAKNTVYLQMNSLKPEDTAVYYCAATRHSRVRGGDYWGQGTQVTVSS,low polyreactivity
3,QVQLVESGGGLVQAGGSLRLSCAASGIIFGKNAMGWYRHAPGKERELVAAISSSGGSTYYADSVKGRFTISRDNAKNTVYLQMNSLKPEDTAVYYCATERGSRRSGSRMDYWGQGTQVTVSS,high polyreactivity
4,QVQLVESGGGLVQAGGSLRLSCAASGIIFGQYAMGGYIQAPGKEREFVSAISRSGGSTNYADSVKGLFTISRDNAKNTVYLQMNSLKPEDTAVYYCNKRARHTGDFVWGHGYWGQGTQVTVSS,low polyreactivity
5,QVQLVESGGGLVQAGGSLRLSCAASGIIFGRNAMGWYRQAPGKERELVAAIRWSGGSTYYADSVKGRFTISRDNAKNTVYLQMNSLKPEDTAVYYCAKRYSYWSGVKYGYWGQGTQVTVSS,high polyreactivity
6,QVQLVESGGGLVQAGGSLRLSCAASGIIFGRNVMGWYRQAPGKERELVAAITRRGVNTYYADSVKGRFTISRDNAKNTVYLQMNSLKPEDTAVYYCAATWWQYDQGLHRYDYWGQGTQVTVSS,high polyreactivity
7,QVQLVESGGGLVQAGGSLRLSCAASGIIFGRYAMGWYRQAPGKERELVAAITRGGSTKYADSVKGRFTISRDNAKNTVYLQMNSLKPEDTAVYYCARVRRYPLRYNYWGQGTQVTVSS,high polyreactivity
8,QVQLVESGGGLVQAGGSLRLSCAASGIIFGVNAMGWYRQAPGKERELVASITSGGSTNYADSVKGRFTISRDNAKNTVYLQMNSLKPEDTAVYYCNARWWAPGRPGDEINRILDYWGQGTQVTVSS,low polyreactivity
9,QVQLVESGGGLVQAGGSLRLSCAASGIIFGWYAMGWYRQAPGKERELVAAINWSGTSTYYADSVKGRFTISRDNAKNTVYLQMNSLKPEDPAVYYCAAYFQKLPTTGYEYWGQGTQVTVSS,low polyreactivity
10,QVQLVESGGGLVQAGGSLRLSCAASGIIFGYNAMGLYRQAHGKERELVASIDVSGGITYYADSVKGRFTISRDNAKNTVYLQMNSLKPEDTAVYYCAAAVYGRGSPHYYWGEGTQVTVSS,high polyreactivity
11,QVQLVESGGGLVQAGGSLRLSCAASGIIFGYNVMGWYRQAPGKERELVAAISGSGSSTYYADSVKGRFTISRDNAKNTVYLQMNSLKPEDTAVYYCARQRYEYRTTYYYWGQGTQVTVSS,high polyreactivity
12,QVQLVESGGGLVQAGGSLRLSCAASGIIFGYYAMGWYRQAPGKERELVAAINQDGSSTYYADSVKGRFTISRDNAKNTVYLQMNSLKPEDTAVYYCNARGVPRQDARMGYWGQGTQVTVSS,low polyreactivity
13,QVQLVESGGGLVQAGGSLRLSCAASGIIFGYYAMGWYRQAPGKERELVAAISSIGGSTYYADSVKGRFTISRDNAKNTVYLQMNSLKPEDTAVYYCNAASSRWPEYDYWGQGTQVTVSS,high polyreactivity
14,QVQLVESGGGLVQAGGSLRLSCAASGIIFHFNDMGWYRQAPGKERELVAAITSGGSTNYADSVKGRFTLSRDYAKKTVYLQMNSLKPEDTAVYYCNAEPPRGYTVSSGGEMDYWGQGTQVTVSS,low polyreactivity
15,QVQLVESGGGLVQAGGSLRLSCAASGIIFHKYAMGWYRQAPGTERELVAAISRSGGRTYYADSVKGRFTISRDNAKNTVYLQMNSLKPEDTAVYYCAARYLKPGGAYDSWGQGTQVTVSS,high polyreactivity
16,QVQLVESGGGLVQAGGSLRLSCAASGIIFHLYAMGWYRPAPGKERELVAAISWNGSSTYYADSVKGRFTISRDNAKNTVYLQMNSLKPEDTAVYYCAASYGYFEDYGYWGQGTQVTVSS,low polyreactivity
17,QVQLVESGGGLVQAGGSLRLSCAASGIIFHPYAMGWYRQAPGKERELVAVITWPGDSTYYADSVKGRFRISRDNAKNTVYLQMNSLKPEDTAVYYCNVDAWGTSGELPYDYWGQGTQVTVSS,low polyreactivity
18,QVQLVESGGGLVQAGGSLRLSCAASGIIFIGNAMGWYRQAPGKERELVAAISSDGDSTYYADSVKGRFTISRDNAKNTVYLQMNSLKPEDTAVYYCAKDYYPDYYGLYLWPFDYWGQGTQVTVSS,high polyreactivity
19,QVQLVESGGGLVQAGGSLRLSCAASGIIFIKYAMGWYRQAPGKERELVAAITSGGSTHYADSVKGRFTISRDNAKNTVYLQMNSLKPEETAVYYCNADILRHVAYFKDRYQAGSYWGQGTQVTVSS,low polyreactivity
20,QVQLVESGGGLVQAGGSLRLSCAASGIIFINYAMGWYRQAPGKERELVAAINSGGSTKYADSEKGRFTISRDNAKNTVYLLMNSLKPEDTAVYDCAAVPAGRYYWWLYYYWGQGTQVTVSS,high polyreactivity
